Legend:
[1] = target: human GLP-1 receptor (human) (UniProt P43220)
[2] = target: cynomolgus monkey serum albumin (cynomolgus monkey) (UniProt A2V9Z4); assay: SPR; Biacore; 500 resonance units of albumin coupled to a CM5 chip; GAlbudAb flowed in HBS-P+ buffer at 39 nM to 5 μM; KD by the 1:1 interaction model in BiaEval software
[3] = target: human serum albumin (human) (UniProt P02768); assay: as above
rat serum albumin (rat) = rat serum albumin (rat) (UniProt P02770); assay: as above
Sequence of UniProt P02770 (P02770 25-608): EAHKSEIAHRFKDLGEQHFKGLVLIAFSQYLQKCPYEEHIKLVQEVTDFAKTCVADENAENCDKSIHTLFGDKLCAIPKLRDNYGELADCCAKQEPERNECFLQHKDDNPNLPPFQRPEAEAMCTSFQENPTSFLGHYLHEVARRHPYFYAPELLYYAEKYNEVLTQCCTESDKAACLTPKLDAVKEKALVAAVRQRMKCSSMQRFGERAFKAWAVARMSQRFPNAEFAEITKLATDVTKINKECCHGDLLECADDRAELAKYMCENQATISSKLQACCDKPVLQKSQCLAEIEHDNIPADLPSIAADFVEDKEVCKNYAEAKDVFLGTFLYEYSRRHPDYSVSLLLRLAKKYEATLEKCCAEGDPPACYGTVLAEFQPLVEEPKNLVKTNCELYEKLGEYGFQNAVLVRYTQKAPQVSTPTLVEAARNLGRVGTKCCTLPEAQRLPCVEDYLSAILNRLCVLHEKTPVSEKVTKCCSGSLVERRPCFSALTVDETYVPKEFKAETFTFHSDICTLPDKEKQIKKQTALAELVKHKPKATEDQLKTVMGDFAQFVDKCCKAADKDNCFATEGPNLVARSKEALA

Sequence of UniProt P43220 (P43220 24-463): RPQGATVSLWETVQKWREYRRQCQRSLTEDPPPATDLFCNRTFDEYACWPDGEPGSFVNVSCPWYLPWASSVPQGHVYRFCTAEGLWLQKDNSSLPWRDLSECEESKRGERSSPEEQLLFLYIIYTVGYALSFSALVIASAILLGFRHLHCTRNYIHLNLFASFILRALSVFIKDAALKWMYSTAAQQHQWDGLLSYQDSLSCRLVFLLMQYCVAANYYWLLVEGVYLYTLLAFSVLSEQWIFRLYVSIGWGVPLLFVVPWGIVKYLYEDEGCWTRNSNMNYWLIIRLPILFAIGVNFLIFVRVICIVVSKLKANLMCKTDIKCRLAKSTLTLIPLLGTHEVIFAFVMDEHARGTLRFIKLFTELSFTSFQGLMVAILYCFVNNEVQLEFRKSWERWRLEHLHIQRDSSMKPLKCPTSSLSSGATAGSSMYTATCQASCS
Sequence of UniProt P02768 (P02768 25-609): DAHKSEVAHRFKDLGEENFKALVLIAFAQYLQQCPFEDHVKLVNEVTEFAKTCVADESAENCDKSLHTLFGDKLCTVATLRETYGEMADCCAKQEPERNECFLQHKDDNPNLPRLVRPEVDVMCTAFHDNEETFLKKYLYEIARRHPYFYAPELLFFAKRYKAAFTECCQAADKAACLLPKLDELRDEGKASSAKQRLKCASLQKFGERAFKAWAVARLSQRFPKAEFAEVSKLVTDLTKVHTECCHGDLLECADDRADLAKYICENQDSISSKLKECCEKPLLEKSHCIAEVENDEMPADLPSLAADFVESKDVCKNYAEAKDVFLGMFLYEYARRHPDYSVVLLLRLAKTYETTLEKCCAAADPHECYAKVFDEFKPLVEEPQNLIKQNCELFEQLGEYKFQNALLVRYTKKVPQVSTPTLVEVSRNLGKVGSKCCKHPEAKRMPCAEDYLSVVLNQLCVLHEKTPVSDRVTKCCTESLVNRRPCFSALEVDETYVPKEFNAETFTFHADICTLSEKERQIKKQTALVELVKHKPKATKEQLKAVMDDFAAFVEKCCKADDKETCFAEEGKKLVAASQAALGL
Sequence of UniProt A2V9Z4 (A2V9Z4 25-608): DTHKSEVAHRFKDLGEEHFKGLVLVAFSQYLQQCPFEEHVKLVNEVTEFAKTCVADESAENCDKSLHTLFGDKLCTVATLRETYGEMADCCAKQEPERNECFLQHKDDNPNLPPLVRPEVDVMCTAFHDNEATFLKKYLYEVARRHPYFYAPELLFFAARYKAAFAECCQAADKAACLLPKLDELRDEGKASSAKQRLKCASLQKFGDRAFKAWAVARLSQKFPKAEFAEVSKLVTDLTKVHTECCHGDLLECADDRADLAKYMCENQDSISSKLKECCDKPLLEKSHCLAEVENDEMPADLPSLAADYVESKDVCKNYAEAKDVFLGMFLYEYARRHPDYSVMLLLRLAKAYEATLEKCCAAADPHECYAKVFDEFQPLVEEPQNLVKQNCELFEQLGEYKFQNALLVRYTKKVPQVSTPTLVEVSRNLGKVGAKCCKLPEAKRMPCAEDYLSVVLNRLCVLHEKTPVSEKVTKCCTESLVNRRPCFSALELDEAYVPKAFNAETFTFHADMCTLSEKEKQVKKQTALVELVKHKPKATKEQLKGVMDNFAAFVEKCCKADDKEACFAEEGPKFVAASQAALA

Row | Substance | cAMP-driven luciferase reporter gene expression in CHO cells stably transfected with human GLP-1 receptor (EC50) [1] [nM] | Kd [2] [nM] | Kd [3] [nM] | Kd (rat serum albumin (rat)) [nM]
1 | GAlbudAb, DPP-IV resistant GLP-1 (7–36, A8G) fused to the DOM7h-14 AlbudAb | 0.1 | 395 | 143 | 275
2 | GLP-1 (7–36) peptide | 0.1 |  |  | 
